The target of data set [1] is T1, PrfA L140H (Listeria monocytogenes, UniProt P22262 1-237, L140H). The data set can be described thus: crystal structure; PDB probably one of 6QWF/6QWH/6QWK/6QWM; assignment not in material. Particulars: protein: recombinant; tags: His6 removed by TEV, leaves N-terminal GA; chain copies: 2; blunt.
In data set [2] the target is T2, PrfA L140F (Listeria monocytogenes, UniProt P22262 1-237, L140F). Described as above. Particulars: protein: recombinant; tags: His6 removed by TEV, leaves N-terminal GA; chain copies: 2; blunt.
For data set [3], the target named is T3, PrfA A218G (Listeria monocytogenes, UniProt P22262 1-237, A218G). The description is as above. The note with it: protein: recombinant; tags: His6 removed by TEV, leaves N-terminal GA; chain copies: 2; blunt.
Data set [4] has as its target T1, PrfA L140H. The data set can be described thus: SPR. Particulars: protein: recombinant; tags: His6 removed by TEV, leaves N-terminal GA; chain copies: 2; label: 5'-biotin on strand 1; blunt.
A further data set deals with PrfA WT (Listeria monocytogenes, UniProt P22262 1-237). The data set can be described thus: SPR. The note with it: protein: recombinant; tags: His6-TEV vector pET His1a; chain copies: 2; label: 5'-biotin on strand 1; blunt.
The target of data set [5] is T2, PrfA L140F. The data set can be described thus: SPR. Particulars: protein: recombinant; tags: His6 removed by TEV, leaves N-terminal GA; chain copies: 2; label: 5'-biotin on strand 1; blunt.
In data set [6] the target is T3, PrfA A218G. The data set can be described thus: SPR. The note with it: protein: recombinant; tags: His6 removed by TEV, leaves N-terminal GA; chain copies: 2; label: 5'-biotin on strand 1; blunt.

B1: hly PrfA box 30 bp (dsDNA)
DNA 1: TTGAGGCATTAACATTTGTTAACGACGATA
DNA 2: TATCGTCGTTAACAAATGTTAATGCCTCAA
As to B1, the binding result with PrfA L140H [1], in the data set with PrfA L140F [2] and with PrfA A218G [3] was “binds” in each case.

B2: hpt promoter 40 bp (dsDNA)
DNA 1: TTTTGTTTTCTGCATGATAACAAGTGTTAATGACGGAAAG
DNA 2: CTTTCCGTCATTAACACTTGTTATCATGCAGAAAACAAAA
As a reminder, the Kd is the constant that tells how readily two partners part at equilibrium. For the molecule B2, the Kd worked out at 210 nM with PrfA L140H [4], 1040 nM in the data set with PrfA WT, 270 nM in the data set with PrfA L140F [5] and 55 nM in the data set with PrfA A218G [6].

B3: actA promoter 40 bp (dsDNA)
DNA 1: AGTTGGGGTTAACTGATTAACAAATGTTAGAGAAAAATTA
DNA 2: TAATTTTTCTCTAACATTTGTTAATCAGTTAACCCCAACT
With B3, the Kd was 85 nM with PrfA L140H [4], 690 nM with PrfA WT, 95 nM with PrfA L140F [5] and 27 nM with PrfA A218G [6].

B4: hly promoter 40 bp (dsDNA)
DNA 1: CTTTTATGTTGAGGCATTAACATTTGTTAACGACGATAAA
DNA 2: TTTATCGTCGTTAACAAATGTTAATGCCTCAACATAAAAG
On to B4, for which the Kd in the data set with PrfA L140H [4] turned out to be 10 nM; with PrfA WT it was 110 nM; with PrfA L140F [5], 15 nM; in the data set with PrfA A218G [6], 4 nM.

These data come from publication PMC7221254.
